The source of these data is the supplement of paper PMC10567573.

First the molecules themselves.
B1: TRIM43 (parent)
chain: FCDMDKSLLCLLCSNSQEHGAHKH
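Also: lentivirally expressed fusions sorted by FACS into six bins by GFP to DsRed ratio, PSI derived from sequencing read proportions per bin multiplied by bin number.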

This series covers variants of B1. The series can be described thus: protein stability index of a GFP-peptide fusion (GPS, HEK-293T) (PSI 1-6); higher = more stable. As to conditions: c terminus: a fixed tail appended.
With FCDMDKSLLCLLVSNSQEHGAHKH [C13V], the protein stability index is 2.3.

As for FCDMDKSLLCLLSSNSQEHGAHKH [C13S], the protein stability index worked out at 1.61.

With FCDMDKSLLCLLESNSQEHGAHKH [C13E], the protein stability index was determined as 2.13.

Consider FCDMDKSLLCLLGSNSQEHGAHKH [C13G], for which the protein stability index stood at 1.9.

As to FCDMDKSLLCLLWSNSQEHGAHKH [C13W], the protein stability index was 2.72.

On to FCDMDKSLLCLLRSNSQEHGAHKH [C13R], for which the protein stability index worked out at 2.13.

As to FCDMDKSLLCLLPSNSQEHGAHKH [C13P], the protein stability index came out at 2.13.

In the case of FCDMDKSLLCLLKSNSQEHGAHKH [C13K], the protein stability index worked out at 2.15.

Consider FCDMDKSLLCLLHSNSQEHGAHKH [C13H], for which the protein stability index amounted to 1.88.

Turning to FCDMDKSLLCLLNSNSQEHGAHKH [C13N], the protein stability index is 1.87.

As for FCDMDKSLLCLLFSNSQEHGAHKH [C13F], the protein stability index was 1.89.

As to FCDMDKSLLCLLTSNSQEHGAHKH [C13T], the protein stability index was 1.83.

On to FCDMDKSLLCLLDSNSQEHGAHKH [C13D], for which the protein stability index is 1.99.

On to FCDMDKSLLCLLMSNSQEHGAHKH [C13M], for which the protein stability index came out at 2.19.

As to FCDMDKSLLCLLYSNSQEHGAHKH [C13Y], the protein stability index came out at 1.68.

For FCDMDKSLLCLLQSNSQEHGAHKH [C13Q], the protein stability index stood at 2.53.

Consider FCDMDKSLLCLLLSNSQEHGAHKH [C13L], for which the protein stability index is 2.07.

As to FCDMDKSLLCLLISNSQEHGAHKH [C13I], the protein stability index was found to be 2.04.

As to FCDMDKSLLCLLASNSQEHGAHKH [C13A], the protein stability index was found to be 1.15.

For the variant FCDMDKSLLCLWCSNSQEHGAHKH [L12W], the protein stability index is 3.13.

Turning to FCDMDKSLLCLTCSNSQEHGAHKH [L12T], the protein stability index amounted to 1.95.

For the variant FCDMDKSLLCLPCSNSQEHGAHKH [L12P], the protein stability index was found to be 1.91.

Consider FCDMDKSLLCLICSNSQEHGAHKH [L12I], for which the protein stability index is 1.78.

As for FCDMDKSLLCLDCSNSQEHGAHKH [L12D], the protein stability index was found to be 2.32.

As for FCDMDKSLLCLSCSNSQEHGAHKH [L12S], the protein stability index was found to be 2.65.

Turning to FCDMDKSLLCLRCSNSQEHGAHKH [L12R], the protein stability index turned out to be 1.96.

For the variant FCDMDKSLLCLCCSNSQEHGAHKH [L12C], the protein stability index stood at 2.56.

With FCDMDKSLLCLGCSNSQEHGAHKH [L12G], the protein stability index amounted to 1.57.

As for FCDMDKSLLCLNCSNSQEHGAHKH [L12N], the protein stability index came to 2.14.

As for FCDMDKSLLCLFCSNSQEHGAHKH [L12F], the protein stability index was 1.47.

FCDMDKSLLCLYCSNSQEHGAHKH [L12Y]: the protein stability index is 1.75.

For the variant FCDMDKSLLCLKCSNSQEHGAHKH [L12K], the protein stability index was found to be 2.12.

For the variant FCDMDKSLLCLACSNSQEHGAHKH [L12A], the protein stability index worked out at 1.92.

For the variant FCDMDKSLLCLVCSNSQEHGAHKH [L12V], the protein stability index stood at 1.93.

Take FCDMDKSLLCLMCSNSQEHGAHKH [L12M]: the protein stability index was 2.06.

Turning to FCDMDKSLLCLQCSNSQEHGAHKH [L12Q], the protein stability index was 2.65.

Turning to FCDMDKSLLCLECSNSQEHGAHKH [L12E], the protein stability index was 2.55.

Take FCDMDKSLLCLHCSNSQEHGAHKH [L12H]: the protein stability index was 2.78.

On to FCDMDKSLLCLLCSISQEHGAHKH [N15I], for which the protein stability index was 2.49.

On to FCDMDKSLLCLLCSSSQEHGAHKH [N15S], for which the protein stability index came out at 2.07.

For the variant FCDMDKSLLCLLCSWSQEHGAHKH [N15W], the protein stability index amounted to 1.89.

On to FCDMDKSLLCLLCSQSQEHGAHKH [N15Q], for which the protein stability index was determined as 1.87.

With FCDMDKSLLCLLCSRSQEHGAHKH [N15R], the protein stability index was 2.1.

Take FCDMDKSLLCLLCSHSQEHGAHKH [N15H]: the protein stability index is 1.55.

Regarding FCDMDKSLLCLLCSKSQEHGAHKH [N15K], the protein stability index came out at 2.26.

With FCDMDKSLLCLLCSTSQEHGAHKH [N15T], the protein stability index came to 1.77.

With FCDMDKSLLCLLCSVSQEHGAHKH [N15V], the protein stability index came to 1.89.

In the case of FCDMDKSLLCLLCSPSQEHGAHKH [N15P], the protein stability index was found to be 1.34.

As to FCDMDKSLLCLLCSFSQEHGAHKH [N15F], the protein stability index was determined as 2.01.

In the case of FCDMDKSLLCLLCSLSQEHGAHKH [N15L], the protein stability index is 2.4.

Regarding FCDMDKSLLCLLCSYSQEHGAHKH [N15Y], the protein stability index was found to be 2.09.

As to FCDMDKSLLCLLCSMSQEHGAHKH [N15M], the protein stability index is 1.66.

With FCDMDKSLLCLLCSDSQEHGAHKH [N15D], the protein stability index worked out at 2.26.

With FCDMDKSLLCLLCSESQEHGAHKH [N15E], the protein stability index worked out at 1.92.

On to FCDMDKSLLCLLCSGSQEHGAHKH [N15G], for which the protein stability index worked out at 1.94.

For the variant FCDMDKSLLCLLCSASQEHGAHKH [N15A], the protein stability index turned out to be 1.6.

For the variant FCDMDKSLLCLLCSCSQEHGAHKH [N15C], the protein stability index turned out to be 1.77.

As for FCDMDKSLLCWLCSNSQEHGAHKH [L11W], the protein stability index came out at 2.79.

As for FCDMDKSLLCYLCSNSQEHGAHKH [L11Y], the protein stability index was 2.26.

Consider FCDMDKSLLCLLCWNSQEHGAHKH [S14W], for which the protein stability index worked out at 2.06.

As to FCDMDKSLLCLLCNNSQEHGAHKH [S14N], the protein stability index turned out to be 2.01.

Turning to FCDMDKSLLCLLCLNSQEHGAHKH [S14L], the protein stability index stood at 2.08.

Regarding FCDMDKSLLCLLCANSQEHGAHKH [S14A], the protein stability index was found to be 1.87.

Consider FCDMDKSLLCLLCKNSQEHGAHKH [S14K], for which the protein stability index came to 2.12.

Turning to FCDMDKSLLCLLCGNSQEHGAHKH [S14G], the protein stability index came out at 2.26.

Turning to FCDMDKSLLCLLCCNSQEHGAHKH [S14C], the protein stability index came out at 1.88.

FCDMDKSLLCLLCENSQEHGAHKH [S14E]: the protein stability index was determined as 2.02.

For FCDMDKSLLCLLCINSQEHGAHKH [S14I], the protein stability index came to 1.52.

FCDMDKSLLCLLCRNSQEHGAHKH [S14R]: the protein stability index amounted to 2.2.

FCDMDKSLLCLLCMNSQEHGAHKH [S14M]: the protein stability index amounted to 1.85.

Consider FCDMDKSLLCLLCYNSQEHGAHKH [S14Y], for which the protein stability index stood at 1.82.

FCDMDKSLLCLLCQNSQEHGAHKH [S14Q]: the protein stability index turned out to be 2.09.

For the variant FCDMDKSLLCLLCTNSQEHGAHKH [S14T], the protein stability index was 2.02.

In the case of FCDMDKSLLCLLCVNSQEHGAHKH [S14V], the protein stability index was determined as 1.71.

As for FCDMDKSLLCLLCHNSQEHGAHKH [S14H], the protein stability index came to 1.87.

For the variant FCDMDKSLLCLLCPNSQEHGAHKH [S14P], the protein stability index is 1.98.

On to FCDMDKSLLCLLCFNSQEHGAHKH [S14F], for which the protein stability index stood at 1.45.

FCDMDKSLLCLLCDNSQEHGAHKH [S14D]: the protein stability index worked out at 1.72.

Turning to FCDMDKSLLCLLCSNKQEHGAHKH [S16K], the protein stability index is 2.04.

On to FCDMDKSLLCLLCSNHQEHGAHKH [S16H], for which the protein stability index is 2.

With FCDMDKSLLCLLCSNTQEHGAHKH [S16T], the protein stability index is 2.07.

Regarding FCDMDKSLLCLLCSNMQEHGAHKH [S16M], the protein stability index came out at 2.3.

As for FCDMDKSLLCLLCSNPQEHGAHKH [S16P], the protein stability index was found to be 2.65.

As to FCDMDKSLLCLLCSNLQEHGAHKH [S16L], the protein stability index worked out at 2.15.

With FCDMDKSLLCLLCSNIQEHGAHKH [S16I], the protein stability index was determined as 1.57.

Consider FCDMDKSLLCLLCSNFQEHGAHKH [S16F], for which the protein stability index worked out at 2.13.

On to FCDMDKSLLCLLCSNGQEHGAHKH [S16G], for which the protein stability index worked out at 2.22.

As to FCDMDKSLLCLLCSNRQEHGAHKH [S16R], the protein stability index came out at 2.12.

Take FCDMDKSLLCLLCSNAQEHGAHKH [S16A]: the protein stability index is 1.8.

FCDMDKSLLCLLCSNEQEHGAHKH [S16E]: the protein stability index is 1.8.

Regarding FCDMDKSLLCLLCSNCQEHGAHKH [S16C], the protein stability index came out at 1.87.

As to FCDMDKSLLCLLCSNNQEHGAHKH [S16N], the protein stability index was found to be 2.06.

Take FCDMDKSLLCLLCSNDQEHGAHKH [S16D]: the protein stability index came to 1.97.

FCDMDKSLLCLLCSNQQEHGAHKH [S16Q]: the protein stability index worked out at 2.13.
